T1: Recombinant human leptin receptor-Fc chimera (human, UniProt P48357 22-839)
T1 sequence (looked up): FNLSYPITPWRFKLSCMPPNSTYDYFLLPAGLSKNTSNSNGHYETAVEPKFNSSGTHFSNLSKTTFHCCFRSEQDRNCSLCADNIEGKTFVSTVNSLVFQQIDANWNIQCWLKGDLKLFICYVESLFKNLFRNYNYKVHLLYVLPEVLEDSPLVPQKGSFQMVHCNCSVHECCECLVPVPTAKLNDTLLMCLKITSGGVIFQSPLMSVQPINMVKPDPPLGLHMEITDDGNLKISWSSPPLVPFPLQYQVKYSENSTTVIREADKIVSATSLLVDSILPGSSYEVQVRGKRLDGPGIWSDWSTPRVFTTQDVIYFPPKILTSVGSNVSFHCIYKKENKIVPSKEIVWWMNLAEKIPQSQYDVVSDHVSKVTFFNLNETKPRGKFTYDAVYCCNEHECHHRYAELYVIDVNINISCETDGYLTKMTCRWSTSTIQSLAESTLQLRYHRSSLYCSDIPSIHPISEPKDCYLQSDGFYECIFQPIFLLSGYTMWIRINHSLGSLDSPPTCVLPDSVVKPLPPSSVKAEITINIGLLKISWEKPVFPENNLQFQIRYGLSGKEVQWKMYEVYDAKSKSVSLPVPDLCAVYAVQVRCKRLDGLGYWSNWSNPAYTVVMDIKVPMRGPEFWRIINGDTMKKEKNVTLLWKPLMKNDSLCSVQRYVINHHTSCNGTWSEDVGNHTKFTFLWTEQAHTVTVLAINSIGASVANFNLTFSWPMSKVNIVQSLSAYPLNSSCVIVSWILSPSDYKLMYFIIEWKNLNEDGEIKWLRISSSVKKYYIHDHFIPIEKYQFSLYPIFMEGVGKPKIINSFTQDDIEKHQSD


Experiments:
[1] = target: leptin receptor (Mus musculus) (UniProt P48356); assay: SPR; conditions: cited from earlier work
leptin receptor (Mus musculus), sequence (P48356 22-839): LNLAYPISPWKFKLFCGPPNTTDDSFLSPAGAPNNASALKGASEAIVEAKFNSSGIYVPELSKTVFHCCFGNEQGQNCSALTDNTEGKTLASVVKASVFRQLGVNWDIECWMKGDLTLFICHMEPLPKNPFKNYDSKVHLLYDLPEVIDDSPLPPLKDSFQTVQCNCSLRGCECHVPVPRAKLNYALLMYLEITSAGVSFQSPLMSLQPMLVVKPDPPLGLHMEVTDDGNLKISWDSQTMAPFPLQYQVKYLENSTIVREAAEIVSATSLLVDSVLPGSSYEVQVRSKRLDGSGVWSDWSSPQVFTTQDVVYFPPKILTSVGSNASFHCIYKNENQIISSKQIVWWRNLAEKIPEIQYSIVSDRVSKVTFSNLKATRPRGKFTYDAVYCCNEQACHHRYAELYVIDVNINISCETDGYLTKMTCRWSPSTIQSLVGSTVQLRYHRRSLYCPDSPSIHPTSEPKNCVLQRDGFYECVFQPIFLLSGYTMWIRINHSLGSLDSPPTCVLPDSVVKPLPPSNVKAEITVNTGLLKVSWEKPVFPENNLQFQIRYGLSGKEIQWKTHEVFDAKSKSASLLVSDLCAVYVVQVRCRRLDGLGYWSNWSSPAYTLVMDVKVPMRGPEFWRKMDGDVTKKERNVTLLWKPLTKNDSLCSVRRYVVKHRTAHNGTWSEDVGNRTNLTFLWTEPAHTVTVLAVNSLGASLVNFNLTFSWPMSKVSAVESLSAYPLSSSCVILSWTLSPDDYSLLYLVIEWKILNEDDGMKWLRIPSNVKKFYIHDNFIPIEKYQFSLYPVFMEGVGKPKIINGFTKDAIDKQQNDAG

[2] = target: T1, Recombinant human leptin receptor-Fc …; assay: SPR

Row | Kd [2] | Molecule | Kd [1]
1 | – | leptin (from UniProt P41160) | 120 pM
2 | 89 pM | Recombinant mouse leptin (ligand, UniProt P41160 22-167, looked up) VPIQKVQDDTKTLIKTIVTRINDISHTQSVSAKQRVTGLDFIPGLHPILSLSKMDQTLAVYQQVLTSLPSQNVLQIANDLENLRDLLHLLAFSKSCSLPQTSGLQKPESLDGVLEASLYSTEVVALSRLQGSLQDILQQLDVSPEC | –
3 | 200 pM | Leptin N-terminal conjugate with Pluronic P85 (LepNP85), 1:1 conjugate (ligand, mouse, UniProt P41160 22-167, looked up, one chain of Pluronic P85 on the N-terminal amine (reductive amination, secondary amine)) VPIQKVQDDTKTLIKTIVTRINDISHTQSVSAKQRVTGLDFIPGLHPILSLSKMDQTLAVYQQVLTSLPSQNVLQIANDLENLRDLLHLLAFSKSCSLPQTSGLQKPESLDGVLEASLYSTEVVALSRLQGSLQDILQQLDVSPEC | –
4 | 280 pM | Leptin N-terminal conjugate with poly(ethylene glycol) (LepNPEG5K), 1:1 conjugate (ligand, mouse, UniProt P41160 22-167, looked up, one chain of PEG (average molecular mass 5000 Da) on the N-terminal amine (reductive amination)) VPIQKVQDDTKTLIKTIVTRINDISHTQSVSAKQRVTGLDFIPGLHPILSLSKMDQTLAVYQQVLTSLPSQNVLQIANDLENLRDLLHLLAFSKSCSLPQTSGLQKPESLDGVLEASLYSTEVVALSRLQGSLQDILQQLDVSPEC | –
